Test results published in the supplement of paper PMC10065799, “High-throughput profiling of sequence recognition by tyrosine kinases and SH2 domains using bacterial peptide display” (eLife, 2023).

test system: AncSZ; test: phosphorylation enrichment, bacterial display (enrichment ratio); higher = better substrate or ligand; peptides without Tyr show the background
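Note: 11-residue human phosphosite peptides and single-mutation variants displayed on the E. coli surface, counted by deep sequencing, each peptide's frequency after selection divided by its frequency in the unselected input library; frequency after pTyr selection over input frequency; kinase dosed for 20-30% of maximal phosphorylation in three min.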

Sequence	phosphorylation enrichment
WPQKLYNNFVN [MYO5C_Y526_L522P]	0.795
TSSSSYFDEPV [ARFGAP3_Y356]	1.1
ISKKHYAGLLF [POLD1_Y809_R808H]	0.545
WEQELYSQLVF [WAS_Y102_YF]	2.24
GFEVVYMTEPI [HSP90AB1_Y512]	1.37
IVGRLYRLLTE [SETX_Y1978_L1976R]	1.1
RTVPLYESPRK [DDB1_Y718]	1.31
SIKNKYVTALY [KCNH2_Y611_D609N]	0.559
FEKNVYVDKNL [PTCHD3_Y688]	0.615
SYVVRYNQPRV [GRIN2D_Y736_M733V]	0.843
RMDGKYACSYT [FLNB_Y704_T703K]	0.899
VGTKQYMAPEV [ACVRL1_Y375_R374Q]	0.678
RFLERDIYNRE [HLA-DPB1_Y57_Y57D]	2.71
HYGNNYTDVLQ [MACC1_Y803_R804T]	1.59
KGKLIYLLGDS [NXPE1_Y350]	0.803
KIEGVYARDET [RPL35A_Y34]	0.784
NFDLDYDSVQP [MYC_Y16_YF]	2

Sequence	phosphorylation enrichment
IDGLEYLHSPG [STK11_Y166_Q170P]	0.931
VVQGLYKSMPK [KBTBD2_Y250]	0.53
NNIDFYKNTTN [FGFR2_Y657_K659N_YF]	0.746
PAIYTYDEYKK [COL8A2_Y648_T645I]	1.93
PEVSGYCHFAD [TG_Y234_C237Y_YF]	1.29
GEHSIYSTVNN [CD55_Y266_C267S]	0.792
KVGNEYVTKGQ [MYH7_Y410]	0.492
DTNIAYWLHPR [POMT1_Y581]	0.762
NACGLYHTMNG [GATA5_Y216_K218T]	0.959
NQILPYIKELV [PPP2R1B_Y341]	1.01
HEGKIYEYNQV [ZNF665_Y162]	1.98
ENFDDYMKEVG [FABP4_Y20]	1.23
LVKDGYQMAQP [CSF1R_Y873]	0.609
PEADKYCLTFA [FGG_Y300_R301C_YF]	1.33
KHMADYPDYKY [SOX11_Y113]	0.642
ICRWVYPLTPE [EIF2B5_Y319_R315C]	1.29

target: EPHB1 (UniProt P54762); test: as above
Sequence (P54762 whole entry, looked up): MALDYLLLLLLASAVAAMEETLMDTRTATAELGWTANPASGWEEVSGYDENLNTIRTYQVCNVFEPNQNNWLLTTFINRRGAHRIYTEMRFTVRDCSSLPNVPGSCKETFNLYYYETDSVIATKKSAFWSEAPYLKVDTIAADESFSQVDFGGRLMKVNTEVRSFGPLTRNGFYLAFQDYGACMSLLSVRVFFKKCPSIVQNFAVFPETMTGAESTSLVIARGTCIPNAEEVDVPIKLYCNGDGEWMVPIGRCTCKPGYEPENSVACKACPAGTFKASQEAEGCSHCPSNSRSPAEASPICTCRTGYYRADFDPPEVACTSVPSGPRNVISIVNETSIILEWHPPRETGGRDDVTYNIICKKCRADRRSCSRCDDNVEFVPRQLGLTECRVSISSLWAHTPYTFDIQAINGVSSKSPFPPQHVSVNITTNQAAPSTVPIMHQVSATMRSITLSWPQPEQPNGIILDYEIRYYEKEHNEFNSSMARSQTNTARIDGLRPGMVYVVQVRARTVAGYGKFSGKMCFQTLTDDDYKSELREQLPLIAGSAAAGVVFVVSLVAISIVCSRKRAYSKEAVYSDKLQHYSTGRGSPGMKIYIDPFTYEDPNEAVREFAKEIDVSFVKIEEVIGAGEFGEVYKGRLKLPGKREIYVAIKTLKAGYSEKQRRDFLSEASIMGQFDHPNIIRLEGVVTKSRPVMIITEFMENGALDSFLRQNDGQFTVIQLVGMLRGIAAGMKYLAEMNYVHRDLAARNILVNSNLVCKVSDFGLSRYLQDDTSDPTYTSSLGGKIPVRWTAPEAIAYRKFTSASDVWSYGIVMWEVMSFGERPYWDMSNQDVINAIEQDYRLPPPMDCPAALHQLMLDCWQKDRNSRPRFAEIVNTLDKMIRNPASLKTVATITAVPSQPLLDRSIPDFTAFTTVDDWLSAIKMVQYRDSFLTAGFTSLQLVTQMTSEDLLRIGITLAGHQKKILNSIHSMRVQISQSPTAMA

Sequence	phosphorylation enrichment
WPQKLYNNFVN [MYO5C_Y526_L522P]	0.407
TSSSSYFDEPV [ARFGAP3_Y356]	0.549
ISKKHYAGLLF [POLD1_Y809_R808H]	0.317
WEQELYSQLVF [WAS_Y102_YF]	8.61
GFEVVYMTEPI [HSP90AB1_Y512]	0.527
IVGRLYRLLTE [SETX_Y1978_L1976R]	0.481
RTVPLYESPRK [DDB1_Y718]	20.7
SIKNKYVTALY [KCNH2_Y611_D609N]	0.349
FEKNVYVDKNL [PTCHD3_Y688]	0.36
SYVVRYNQPRV [GRIN2D_Y736_M733V]	0.478
RMDGKYACSYT [FLNB_Y704_T703K]	0.437
VGTKQYMAPEV [ACVRL1_Y375_R374Q]	0.466
RFLERDIYNRE [HLA-DPB1_Y57_Y57D]	1.74
HYGNNYTDVLQ [MACC1_Y803_R804T]	5.63
KGKLIYLLGDS [NXPE1_Y350]	0.391
KIEGVYARDET [RPL35A_Y34]	0.515
NFDLDYDSVQP [MYC_Y16_YF]	1.28

Sequence	phosphorylation enrichment
IDGLEYLHSPG [STK11_Y166_Q170P]	0.377
VVQGLYKSMPK [KBTBD2_Y250]	0.386
NNIDFYKNTTN [FGFR2_Y657_K659N_YF]	0.484
PAIYTYDEYKK [COL8A2_Y648_T645I]	3.61
PEVSGYCHFAD [TG_Y234_C237Y_YF]	0.745
GEHSIYSTVNN [CD55_Y266_C267S]	9.99
KVGNEYVTKGQ [MYH7_Y410]	0.303
DTNIAYWLHPR [POMT1_Y581]	0.433
NACGLYHTMNG [GATA5_Y216_K218T]	0.934
NQILPYIKELV [PPP2R1B_Y341]	0.509
HEGKIYEYNQV [ZNF665_Y162]	1.06
ENFDDYMKEVG [FABP4_Y20]	0.579
LVKDGYQMAQP [CSF1R_Y873]	0.39
PEADKYCLTFA [FGG_Y300_R301C_YF]	0.685
KHMADYPDYKY [SOX11_Y113]	0.458
ICRWVYPLTPE [EIF2B5_Y319_R315C]	0.5

target: EPHB2 (UniProt P29323); test: as above
Sequence (P29323 whole entry, looked up): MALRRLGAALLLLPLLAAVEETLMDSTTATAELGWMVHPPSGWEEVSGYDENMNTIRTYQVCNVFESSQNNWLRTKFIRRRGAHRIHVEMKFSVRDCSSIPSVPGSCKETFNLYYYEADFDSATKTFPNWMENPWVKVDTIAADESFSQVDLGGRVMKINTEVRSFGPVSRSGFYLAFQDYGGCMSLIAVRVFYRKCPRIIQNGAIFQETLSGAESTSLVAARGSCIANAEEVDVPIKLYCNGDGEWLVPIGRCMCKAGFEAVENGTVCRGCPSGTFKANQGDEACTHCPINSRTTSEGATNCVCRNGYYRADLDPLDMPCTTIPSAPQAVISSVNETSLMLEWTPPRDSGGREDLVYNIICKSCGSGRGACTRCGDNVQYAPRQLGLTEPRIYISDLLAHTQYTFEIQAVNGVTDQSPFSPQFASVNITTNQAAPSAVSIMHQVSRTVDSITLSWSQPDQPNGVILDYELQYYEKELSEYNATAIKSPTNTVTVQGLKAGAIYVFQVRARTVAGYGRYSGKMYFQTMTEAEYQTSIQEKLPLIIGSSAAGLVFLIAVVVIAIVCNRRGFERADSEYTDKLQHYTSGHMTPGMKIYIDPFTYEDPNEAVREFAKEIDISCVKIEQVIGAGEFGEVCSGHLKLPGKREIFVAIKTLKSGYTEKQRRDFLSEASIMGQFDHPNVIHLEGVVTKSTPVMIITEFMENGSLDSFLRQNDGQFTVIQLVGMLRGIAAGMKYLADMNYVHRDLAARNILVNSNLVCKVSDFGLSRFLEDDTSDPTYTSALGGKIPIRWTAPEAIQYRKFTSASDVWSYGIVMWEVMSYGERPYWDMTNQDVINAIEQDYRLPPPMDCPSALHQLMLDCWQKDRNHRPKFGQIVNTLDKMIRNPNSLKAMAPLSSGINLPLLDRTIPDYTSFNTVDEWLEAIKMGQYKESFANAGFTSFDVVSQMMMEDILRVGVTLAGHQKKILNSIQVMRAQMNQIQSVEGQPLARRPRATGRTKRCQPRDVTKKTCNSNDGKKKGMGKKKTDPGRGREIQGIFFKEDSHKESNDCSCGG

Sequence	phosphorylation enrichment
WPQKLYNNFVN [MYO5C_Y526_L522P]	0.546
TSSSSYFDEPV [ARFGAP3_Y356]	0.576
ISKKHYAGLLF [POLD1_Y809_R808H]	0.381
WEQELYSQLVF [WAS_Y102_YF]	11.6
GFEVVYMTEPI [HSP90AB1_Y512]	0.537
IVGRLYRLLTE [SETX_Y1978_L1976R]	0.494
RTVPLYESPRK [DDB1_Y718]	26.6
SIKNKYVTALY [KCNH2_Y611_D609N]	0.498
FEKNVYVDKNL [PTCHD3_Y688]	0.406
SYVVRYNQPRV [GRIN2D_Y736_M733V]	0.478
RMDGKYACSYT [FLNB_Y704_T703K]	0.471
VGTKQYMAPEV [ACVRL1_Y375_R374Q]	0.653
RFLERDIYNRE [HLA-DPB1_Y57_Y57D]	1.48
HYGNNYTDVLQ [MACC1_Y803_R804T]	1.45
KGKLIYLLGDS [NXPE1_Y350]	0.42
KIEGVYARDET [RPL35A_Y34]	0.612
NFDLDYDSVQP [MYC_Y16_YF]	0.923

Sequence	phosphorylation enrichment
IDGLEYLHSPG [STK11_Y166_Q170P]	0.584
VVQGLYKSMPK [KBTBD2_Y250]	0.477
NNIDFYKNTTN [FGFR2_Y657_K659N_YF]	0.389
PAIYTYDEYKK [COL8A2_Y648_T645I]	3.29
PEVSGYCHFAD [TG_Y234_C237Y_YF]	0.782
GEHSIYSTVNN [CD55_Y266_C267S]	13
KVGNEYVTKGQ [MYH7_Y410]	0.495
DTNIAYWLHPR [POMT1_Y581]	0.44
NACGLYHTMNG [GATA5_Y216_K218T]	0.849
NQILPYIKELV [PPP2R1B_Y341]	0.611
HEGKIYEYNQV [ZNF665_Y162]	0.987
ENFDDYMKEVG [FABP4_Y20]	0.623
LVKDGYQMAQP [CSF1R_Y873]	0.392
PEADKYCLTFA [FGG_Y300_R301C_YF]	0.7
KHMADYPDYKY [SOX11_Y113]	0.471
ICRWVYPLTPE [EIF2B5_Y319_R315C]	0.542

target: FGFR1 (UniProt P11362); test: as above
Sequence (P11362 whole entry, looked up): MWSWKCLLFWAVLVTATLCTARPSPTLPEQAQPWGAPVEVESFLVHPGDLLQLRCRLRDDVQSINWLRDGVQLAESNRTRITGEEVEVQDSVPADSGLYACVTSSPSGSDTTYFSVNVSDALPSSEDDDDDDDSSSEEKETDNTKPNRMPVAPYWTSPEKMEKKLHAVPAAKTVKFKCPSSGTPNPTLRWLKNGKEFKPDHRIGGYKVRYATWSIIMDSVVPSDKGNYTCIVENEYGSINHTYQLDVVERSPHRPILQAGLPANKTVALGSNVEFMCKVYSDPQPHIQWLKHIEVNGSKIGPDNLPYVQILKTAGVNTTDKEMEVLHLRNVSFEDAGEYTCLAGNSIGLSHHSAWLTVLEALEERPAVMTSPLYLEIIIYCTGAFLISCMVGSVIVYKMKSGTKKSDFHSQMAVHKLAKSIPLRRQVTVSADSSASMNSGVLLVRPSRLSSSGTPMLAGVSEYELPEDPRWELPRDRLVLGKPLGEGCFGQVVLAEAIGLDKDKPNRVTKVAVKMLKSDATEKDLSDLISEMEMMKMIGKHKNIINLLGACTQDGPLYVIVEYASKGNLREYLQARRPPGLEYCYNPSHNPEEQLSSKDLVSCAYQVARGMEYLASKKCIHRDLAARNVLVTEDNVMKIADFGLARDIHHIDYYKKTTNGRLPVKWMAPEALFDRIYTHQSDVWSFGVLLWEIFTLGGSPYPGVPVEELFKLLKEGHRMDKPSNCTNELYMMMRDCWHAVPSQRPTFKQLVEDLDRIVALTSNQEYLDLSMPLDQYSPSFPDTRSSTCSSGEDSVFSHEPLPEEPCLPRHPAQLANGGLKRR

Sequence	phosphorylation enrichment
WPQKLYNNFVN [MYO5C_Y526_L522P]	0.445
TSSSSYFDEPV [ARFGAP3_Y356]	0.486
ISKKHYAGLLF [POLD1_Y809_R808H]	0.468
WEQELYSQLVF [WAS_Y102_YF]	4.85
GFEVVYMTEPI [HSP90AB1_Y512]	0.625
IVGRLYRLLTE [SETX_Y1978_L1976R]	0.418
RTVPLYESPRK [DDB1_Y718]	0.374
SIKNKYVTALY [KCNH2_Y611_D609N]	0.409
FEKNVYVDKNL [PTCHD3_Y688]	0.419
SYVVRYNQPRV [GRIN2D_Y736_M733V]	0.452
RMDGKYACSYT [FLNB_Y704_T703K]	0.528
VGTKQYMAPEV [ACVRL1_Y375_R374Q]	0.458
RFLERDIYNRE [HLA-DPB1_Y57_Y57D]	1.18
HYGNNYTDVLQ [MACC1_Y803_R804T]	1.14
KGKLIYLLGDS [NXPE1_Y350]	0.434
KIEGVYARDET [RPL35A_Y34]	0.437
NFDLDYDSVQP [MYC_Y16_YF]	0.573

Sequence	phosphorylation enrichment
IDGLEYLHSPG [STK11_Y166_Q170P]	0.467
VVQGLYKSMPK [KBTBD2_Y250]	0.384
NNIDFYKNTTN [FGFR2_Y657_K659N_YF]	0.442
PAIYTYDEYKK [COL8A2_Y648_T645I]	2.04
PEVSGYCHFAD [TG_Y234_C237Y_YF]	0.709
GEHSIYSTVNN [CD55_Y266_C267S]	0.584
KVGNEYVTKGQ [MYH7_Y410]	0.393
DTNIAYWLHPR [POMT1_Y581]	1.84
NACGLYHTMNG [GATA5_Y216_K218T]	2.47
NQILPYIKELV [PPP2R1B_Y341]	0.579
HEGKIYEYNQV [ZNF665_Y162]	0.746
ENFDDYMKEVG [FABP4_Y20]	0.569
LVKDGYQMAQP [CSF1R_Y873]	0.45
PEADKYCLTFA [FGG_Y300_R301C_YF]	0.664
KHMADYPDYKY [SOX11_Y113]	0.453
ICRWVYPLTPE [EIF2B5_Y319_R315C]	0.516
